Data set [1] has as its target T1, FLAG-CD95L (Enzo) (UniProt P48023 130-281).
T1 construct: CD95 ligand (CD95L, Fas ligand), soluble commercial protein with a FLAG tag; No catalogue number is printed; source: bought: Enzo Life Sciences
T1 sequence (looked up): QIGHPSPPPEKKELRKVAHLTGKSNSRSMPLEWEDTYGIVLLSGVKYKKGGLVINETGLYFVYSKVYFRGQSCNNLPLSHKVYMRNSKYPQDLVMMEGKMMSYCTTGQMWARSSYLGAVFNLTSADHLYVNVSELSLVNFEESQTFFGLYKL
Put plainly: ELISA; CD95-His coated at 2 µg/ml in PBS overnight at 4 °C; biotin-IZ-CD95L or FLAG-CD95L 0.1 nM to 100 nM in 0.5% BSA/PBST, 2 h at r.t.; detected with anti-CD95L antibody and HRP secondary; 4-parameter logistic fit. Particulars: both partners purified.

Data set [2] concerns the molecule itself. The data set can be described thus: SEC; Superdex 75 10/300 GL (Fig. 3A) or ENrich SEC 70 10 x 300 (Fig. 3B, C); PBS pH 7.4, 0.3 ml/min; sizes from a standard curve of protein standards; peak shares from Gaussian fits.

Values joined by “and” are separate entries in the source; they are usually repeats but may differ in a detail not shown here. Equal values may be shown once.

B1: CD95-His (Sino Biological) (receptor, UniProt P25445 26-173, looked up)
chain: QVTDINSKGLELRKTVTTVETQNLEGLHHDGQFCHKPCPPGERKARDCTVNGDEPDCVPCQEGKEYTDKAHFSSKCRRCRLCDEGHGLEVEINCTRTQNTKCRCKPNFFCNSTVCEHCDPCTKCEHGIIKECTLTSNTKCKEEGSRSN
notes: CD95 (Fas, Apo-1), soluble commercial protein with a His tag; No catalogue number is printed; In the functional rows on Hela WT cells the CD95 is the endogenous receptor of the cells; this molecule stands for it; also called Fas; Apo-1; source: bought: Sino Biological
One may read the Kd as a measure of binding affinity in units of concentration. A low value points to tighter binding. As to B1, the affinity in data set [1], expressed as Kd, was 11.3 nM. This counts as double-digit nanomolar.

B2: His-IZ-CD95L (His8-TEV-Cys-IZ-CD95L, secreted form without the IL2 signal peptide) (ligand)
chain: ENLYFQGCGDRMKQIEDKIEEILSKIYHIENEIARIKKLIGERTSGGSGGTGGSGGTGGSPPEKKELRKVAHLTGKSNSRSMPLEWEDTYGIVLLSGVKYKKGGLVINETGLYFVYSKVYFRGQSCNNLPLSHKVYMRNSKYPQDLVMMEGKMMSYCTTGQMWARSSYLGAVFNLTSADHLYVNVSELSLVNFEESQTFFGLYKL
notes: TEV protease cleavage site ENLYFQ, extra cysteine, isoleucine zipper (IZ, variant of the GCN4 leucine zipper) and linker; stands after the His8 tag in the printed insert; CD95 ligand (CD95L, Fas ligand, CD178, TNFSF6), human, extracellular domain, amino acids 137-281, without the stalk region; Origin: a designed isoleucine zipper joined to a natural stretch of CD95L; also called X-IZ-CD95L; …
For orientation: stoichiometry N means a count of units in the complex or per binding partner. With B2, the “stoichiometry N” value in data set [2] was 3 and 2.

Values taken from paper PMC12219679, “High yield purification of an isoleucine zipper-modified CD95 ligand for efficient cell apoptosis initiation and with biotin or DNA-oligomer binding domain to probe ligand functionalization effects” (BMC Biotechnology, 2025).
